The data set relates to IcmBmp, icmB gene product of Methylibium petroleiphilum (subunit of hydroxyisobutyryl-CoA mutase).

B1: IcmAmp, icmA gene product of Methylibium petroleiphilum (subunit of hydroxyisobutyryl-CoA mutase) (enzyme)
chain: MTWLEPQIKSQLQSERKDWEANEVGAFLKKAPERKEQFHTIGDFPVQRTYTAADIADTPLEDIGLPGRYPFTRGPYPTMYRSRTWTMRQIAGFGTGEDTNKRFKYLIAQGQTGISTDFDMPTLMGYDSDHPMSDGEVGREGVAIDTLADMEALLADIDLEKISVSFTINPSAWILLAMYVALGEKRGYDLNKLSGTVQADILKEYMAQKEYIYPIAPSVRIVRDIITYSAKNLKRYNPINISGYHISEAGSSPLQEAAFTLANLITYVNEVTETGMHVDEFAPRLAFFFVSQGDFFEEVAKFRALRRCYAKIMKERFGAKNPESMRLRFHCQTAAATLTKPQYMVNVVRTSLQALSAVLGGAQSLHTNGYDEAFAIPTEDAMKMALRTQQIIAEESGVADVIDPLGGSYYVEALTTEYEKKIFEILEEVEKRGGTIKLIEQGWFQKQIADFAYETALRKQSGQKPVIGVNRFVENEEDVKIEIHPYDNTTAERQISRTRRVRAERDEAKVQAMLDQLVAVAKDESQNLMPLTIELVKAGATMGDIVEKLKGIWGTYRETPVF
Take B1: the Activity of purified enzyme (mUI/mg): Hydroxyisobutyryl-CoA mutase (with 3-Hydroxybutyryl-CoA 1 mM in aerobic conditions) worked out at 2 mUI/mg, the Activity of purified enzyme (mUI/mg): Hydroxyisobutyryl-CoA mutase (with 3-Hydroxybutyryl-CoA 1 mM in anaerobic conditions) turned out to be 46 mUI/mg and the Activity of purified enzyme (mUI/mg): Hydroxyisobutyryl-CoA mutase (with 3-Hydroxybutyryl-CoA 10 mM in anaerobic conditions) amounted to 223 mUI/mg.

The record behind these values is patent US20110151530.
